Source: US20100297683A1 (QUEEN MARY AND WESTFIELD COLLEGE, published 2010)
Ends that are not written are not given here.

Tests used:
[1] = system: T1, AAPVAAK cross-linked dextran hydrogel
T1 sequence: AAPVAAK

[2] = system: T2, AAPFFK cross-linked dextran hydrogel
T2 sequence: AAPFFK

[3] = biological target: T3, AAPFFK cross-linked dextran hydrogel
T3 chain: AAPFFK

[4] = biological target: T4, Ala-Ala-Pro-Val-Ala-Ala-Lys-NH2 (AAPVAAK) peptide cross-linker in acrylamide hydrogel film (not fully specified)
T4 chain: AAPVAAK

[5] = biological target: T5, AAPVAAK cross-linked dextran hydrogel (not fully specified)
T5 chain: AAPVAAK

BSA = biological target: T6, BSA (UniProt P02769 25-607); test: QCM admittance (mass, delta XL) on peptide hydrogel film
T6 construct: Control protein added instead of HNE
T6 sequence (P02769 25-607 limits assumed): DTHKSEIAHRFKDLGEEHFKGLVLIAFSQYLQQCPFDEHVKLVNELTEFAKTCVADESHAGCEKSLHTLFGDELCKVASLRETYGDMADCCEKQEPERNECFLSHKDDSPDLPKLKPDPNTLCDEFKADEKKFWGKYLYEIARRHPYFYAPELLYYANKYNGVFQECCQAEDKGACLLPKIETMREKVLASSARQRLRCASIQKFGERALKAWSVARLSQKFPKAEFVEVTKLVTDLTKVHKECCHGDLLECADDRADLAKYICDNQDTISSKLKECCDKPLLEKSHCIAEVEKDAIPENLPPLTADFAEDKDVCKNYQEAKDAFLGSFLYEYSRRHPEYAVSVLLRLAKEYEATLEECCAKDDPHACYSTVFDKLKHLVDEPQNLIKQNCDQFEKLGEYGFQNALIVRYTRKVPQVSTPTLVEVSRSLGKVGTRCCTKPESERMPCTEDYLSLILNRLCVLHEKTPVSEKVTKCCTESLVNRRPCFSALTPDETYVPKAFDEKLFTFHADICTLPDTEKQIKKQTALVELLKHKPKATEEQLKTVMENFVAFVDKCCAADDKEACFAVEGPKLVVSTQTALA

For cathepsin G, the “degradation of hydrogel film monitored by QCM, 100 mU cathepsin G” value [1] was “slow degradation was observed, indicating some minor cross-sensitivity” and the “degradation of hydrogel film monitored by QCM resonant frequency, 100 mU/ml cathepsin G” value [2] was “Cathepsin G caused the films to degrade resulting in an increase in resonant frequency”.

B1: Human Neutrophil Elastase (protein)
chain: IVGGRRARPHAWPFMVSLQLRGGHFCGATLIAPNFVMSAAHCVANVNVRAVRVVLGAHNLSRREPTRQVFAVQRIFENGYDPVNLLNDIVILQLNGSATINANVQVAQLPAQGRRLGNGVQCLAMGWGLLGRNRGIASVLQELNVTVVTSLCRRSNVCTLVRGRQAGVCFGDSGSPLVCNGLIHGIASFVRGGCASGLYPDAFAPVAQFVNWIDSIIQ
In the case of B1, the “degradation of hydrogel film monitored by QCM, 10 U/ml HNE” value [3] is reported as “There was no noticeable degradation of the hydrogel when HNE was introduced”, the “change of QCM parameter delta XL (mass of the hydrogel film) after addition of HNE” value [4] is reported as “The gradual decrease in mass was due to the breakage of peptide bonds and the subsequent dissolution of the film resulting in mass loss from the surface of the crystal” and the “change of QCM resistive component delta R after addition of HNE” value [4] is reported as “The gradual decrease was caused by the cleavage of peptide bonds and subsequent dissolution of the hydrogel by the action of the enzyme human neutrophil elastase”. The “degradation of hydrogel film monitored by QCM resonance frequency (25% cross-linked film)” value [5] was “After 10 min of enzyme exposure, the film was completely degraded” and the “degradation of hydrogel film monitored by QCM resonance frequency (50% cross-linked, reduced film)” value [5] was “the rate of degradation increased when the HNE concentration was increased”.

B2: Ala-Ala-Pro-Val-Ala-Ala-Lys-NH2 (AAPVAAK) peptide cross-linker in acrylamide hydrogel film (peptide)
peptide: AAPVAAK-NH2
modifications: not fully specified (N-terminus); printed as Ala-Ala-Pro-Val-Ala-Ala-Lys-NH2; also: both ends capped with acryloyl group, copolymerised with acrylamide into hydrogel film
B2: no binding (BSA).
